The data set has as its target KLF4 (Homo sapiens) (UniProt O43474). Put plainly: DPI-ELISA competition. To be noted: KLF4 0-150 ng against 80 ng Sp1; 2 pmol DNA; EMSA: 2 ug nuclear extract or 50 ng KLF4, 30 min on ice, 6% native PAGE; DPI-ELISA: 2 pmol biotin-DNA, 2 h; buffer, salt and pH not stated.

These results are taken from paper PMC6517596.

Chain of UniProt O43474 (O43474 whole entry): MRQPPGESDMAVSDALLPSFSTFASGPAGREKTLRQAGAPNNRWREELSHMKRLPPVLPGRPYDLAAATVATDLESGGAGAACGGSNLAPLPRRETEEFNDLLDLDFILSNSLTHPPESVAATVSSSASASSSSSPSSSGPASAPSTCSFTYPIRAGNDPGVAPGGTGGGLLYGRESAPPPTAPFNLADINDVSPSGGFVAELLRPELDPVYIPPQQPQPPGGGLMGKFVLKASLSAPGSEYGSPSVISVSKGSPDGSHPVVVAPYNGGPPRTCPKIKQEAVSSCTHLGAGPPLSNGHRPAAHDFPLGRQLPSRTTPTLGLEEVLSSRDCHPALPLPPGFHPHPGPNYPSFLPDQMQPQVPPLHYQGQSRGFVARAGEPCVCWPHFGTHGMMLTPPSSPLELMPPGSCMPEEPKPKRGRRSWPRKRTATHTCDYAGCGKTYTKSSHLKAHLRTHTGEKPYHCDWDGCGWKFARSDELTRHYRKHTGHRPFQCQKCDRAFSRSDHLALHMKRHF

In the case of “GGTCCCAGAGCACGAGCCCCCGCCCCCGGTGGCCCC (double strand) [CPI-17 GC box 2 biotinylated]”, the IC50 is 29 ng.
